Reference: patent publication US6395479B1, “Androgen-metabolic gene mutations and prostate cancer risk” (University of Southern California, priority 1998, dated 2002)

T1: SRD5A2 (steroid 5α-reductase type II) (Homo sapiens, UniProt P31213, A49T/L89V)
T1 construct: expressed in transfected cells; host or cells: cos cells (electroporated; sonicated cell extracts)
T1 sequence (P31213 1-254 A49T/L89V): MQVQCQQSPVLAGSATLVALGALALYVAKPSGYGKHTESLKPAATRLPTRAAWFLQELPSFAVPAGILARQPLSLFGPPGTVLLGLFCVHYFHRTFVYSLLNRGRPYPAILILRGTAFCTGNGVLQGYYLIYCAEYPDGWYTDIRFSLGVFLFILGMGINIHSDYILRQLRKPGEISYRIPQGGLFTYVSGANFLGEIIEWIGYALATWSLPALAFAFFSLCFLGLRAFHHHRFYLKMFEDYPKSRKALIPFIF


What was measured:
[1] = test system: SRD5A2 (steroid 5α-reductase type II); assay: SRD5A2 activity in extracts of transfected cos cells: conversion of [14C] testosterone to [14C] dihydrotestosterone with NADPH; assay type: biochemical, human; conditions: for Vmax for testosterone to dihydrotestosterone conversion: normalized protein extracts of transfected cos cells, 37° C., cofactor NADPH
[2] = target: T1, SRD5A2 (steroid 5α-reductase type II); assay: as above; assay type: biochemical; conditions: substrate testosterone

| Molecule | Vmax for testosterone to dihydrotestosterone conversion [1] [nmol/min/mg] | testosterone concentration at which the enzyme is substrate inhibited [1] [µM] | apparent KM for testosterone compared to the normal enzyme [2] |
| --- | --- | --- | --- |
| normal enzyme: normal (wild type) steroid 5α-reductase type II from the SRD5A2 construct expressed in cos cells (protein, UniProt P31213 1-254, looked up) 3-oxo-5-alpha-steroid …: MQVQCQQSPVLAGSATLVALGALALYVAKPSGYGKHTESLKPAATRLPARAAWFLQELPSFAVPAGILARQPLSLFGPPGTVLLGLFCLHYFHRTFVYSLLNRGRPYPAILILRGTAFCTGNGVLQGYYLIYCAEYPDGWYTDIRFSLGVFLFILGMGINIHSDYILRQLRKPGEISYRIPQGGLFTYVSGANFLGEIIEWIGYALATWSLPALAFAFFSLCFLGLRAFHHHRFYLKMFEDYPKSRKALIPFIF | 1.3 | 1.5 |  |
| A49T enzyme: steroid 5α-reductase type II encoded by SRD5A2 cDNA with the A49T missense mutation, expressed in cos cells (protein, UniProt P31213 1-254, looked up, variant A49T) 3-oxo-5-alpha-steroid …: MQVQCQQSPVLAGSATLVALGALALYVAKPSGYGKHTESLKPAATRLPTRAAWFLQELPSFAVPAGILARQPLSLFGPPGTVLLGLFCLHYFHRTFVYSLLNRGRPYPAILILRGTAFCTGNGVLQGYYLIYCAEYPDGWYTDIRFSLGVFLFILGMGINIHSDYILRQLRKPGEISYRIPQGGLFTYVSGANFLGEIIEWIGYALATWSLPALAFAFFSLCFLGLRAFHHHRFYLKMFEDYPKSRKALIPFIF | 3.8 | 6 | higher KM for testosterone |
